Molecular target: Hepatocyte Growth Factor (HGF) (UniProt P14210 32-728)
Test: ELISA

Sequence of Hepatocyte Growth Factor (HGF) (P14210 32-728): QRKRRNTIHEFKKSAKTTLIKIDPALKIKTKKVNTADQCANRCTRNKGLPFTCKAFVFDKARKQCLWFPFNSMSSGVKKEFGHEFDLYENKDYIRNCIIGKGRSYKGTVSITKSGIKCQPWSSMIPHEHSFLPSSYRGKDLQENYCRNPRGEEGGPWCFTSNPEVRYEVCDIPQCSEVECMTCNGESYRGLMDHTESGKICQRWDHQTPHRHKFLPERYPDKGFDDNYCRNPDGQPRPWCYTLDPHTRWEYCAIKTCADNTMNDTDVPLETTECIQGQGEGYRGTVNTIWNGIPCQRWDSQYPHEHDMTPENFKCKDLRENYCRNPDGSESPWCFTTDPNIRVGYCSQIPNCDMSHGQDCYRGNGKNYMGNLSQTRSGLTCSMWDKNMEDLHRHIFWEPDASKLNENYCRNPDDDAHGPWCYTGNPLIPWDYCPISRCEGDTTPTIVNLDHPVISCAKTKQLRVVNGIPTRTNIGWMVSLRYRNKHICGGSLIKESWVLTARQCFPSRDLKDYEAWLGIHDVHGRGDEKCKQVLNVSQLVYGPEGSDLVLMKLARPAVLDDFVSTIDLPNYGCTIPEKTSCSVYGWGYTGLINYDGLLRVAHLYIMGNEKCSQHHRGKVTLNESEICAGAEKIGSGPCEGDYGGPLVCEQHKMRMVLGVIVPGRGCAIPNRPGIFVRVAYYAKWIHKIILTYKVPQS

Kd: 0.251 nM
B1: decoyMET^K842E (receptor)
chain: ECKEALAKSEMNVNMKYQLPNFTAETPIQNVILHEHHIFLGATNYIYVLNEEDLQKVAEYKTGPVLEHPDCFPCQDCSSKANLSGGVWKDNINMALVVDTYYDDQLISCGSVNRGTCQRHVFPHNHTADIQSEVHCIFSPQIEEPSQCPDCVVSALGAKVLSSVKDRFINFFVGNTINSSYFPDHPLHSISVRRLKETKDGFMFLTDQSYIDVLPEFRDSYPIKYVHAFESNNFIYFLTVQRETLDAQTFHTRIIRFCSINSGLHSYMEMPLECILTEKRKKRSTKKEVFNILQAAYVSKPGAQLARQIGASLNDDILFGVFAQSKPDSAEPMDRSAMCAFPIKYVNDFFNKIVNKNNVRCLQHFYGPNHEHCFNRTLLRNSSGCEARRDEYRTEFTTALQRVDLFMGQFSEVLLTSISTFIKGDLTIANLGTSEGRFMQVVVSRSGPSTPHVNFLLDSHPVSPEVIVEHTLNQNGYTLVITGKKITKIPLNGLGCRHFQSCSQCLSAPPFVQCGWCHDKCVRSEECLSGTWTQQICLPAIYKVFPNSAPLEGGTRLTICGWDFGFRRNNKFDLKKTRVLLGNESCTLTLSESTMNTLKCTVGPAMNKHFNMSIIISNGHGTTQYSTFSYVDPVITSISPKYGPMAGGTLLTLTGNYLNSGNSRHISIGGKTCTLKSVSNSILECYTPAQTISTEFAVKLKIDLANRETSIFSYREDPIVYEIHPTKSFISGGSTITGVGKNLNSVSVPRMVINVHEAGRNFTVACQHRSNSEIICCTTPSLQQLNLQLPLKTKAFFMLDGILSKYFDLIYVHNPVFEPFEKPVMISMGNENVLEIKGNDIDPEAVKGEVLKVGNKSCENIHLHSEAVLCTVPNDLLKLNSELNIEWKQAISSTVLGKVIVQPDQNFTASGAAWSHPQFEKGAAWSHPQFEKGAAWSHPQFEKGAAHHHHHH
